# Data from paper doi:10.1101/2020.03.30.016147.
# Experiments:
# ANG1-C4BP (human) = ANG1-C4BP (human) (UniProt Q15389); assay: non-reducing SDS-PAGE
# C4BP-ANG1 (human) [1] = molecular target: C4BP-ANG1 (human) (UniProt P04003); assay: negative-stain electron microscopy
# C4BP-ANG1 (human) [2] = molecular target: C4BP-ANG1 (human) (UniProt P04003); assay: non-reducing SDS-PAGE
stoichiometry N (ANG1-C4BP (human)),stoichiometry N (C4BP-ANG1 (human) [1]),stoichiometry N (C4BP-ANG1 (human) [2]),Substance
7,–,–,ANG1-C4BP (from UniProt Q15389-1 281-498; P04003 541-597) (ligand)
–,7,7,C4BP-ANG1 (from UniProt P04003 541-597; Q15389-1 281-498) (ligand)
